Experimental data: the DeepSol protein solubility set

Experiment: soluble on expression in E. coli; label from the status in PepcDB or PDB records

Sequence | soluble on expression in E. coli
MGSDKIHHHHHHMSEGCAFAYPFIFVGANMKKIAFIGECMIELNGKPFGEMWQSYGGDTLNSATYLSRMSSPNDIQVYYVSALGSDNLSEQMRMHWQADGVNTDWVLKDENHQPGLYLIQLDEQGERTFLYWRNQSAAHYMVQHHDFSQVLSALEQVDMIYLSGISLAILPKNDRTFLLEQLIKLAKKGVQISFDSNFRPKLWDSFQEAQDCYLQLLPCVSLALVTFDDEQLLWNDTNEPATLTRLHQIGIPKVVVKCGRNGAIFSDSQTSQYGQVVPKPISNVVDTTSAGDSFNAGFLNGYLRNKPLDICCRQGNYVAGIVIQHKGAIIDKHATSHLQSEFN | not soluble
MGSDKIHHHHHHMSEHLTLPTNKPQVTHFSSGPCAKHPGWSVSNLENACLGRSHRSEDGKAKLSEVIERSKQILGLPADYRLGIVPASDTGAVEMALWSLLGQRPLDILAWESFGQEWVKDVVDELKLPDVRLLKAPYGGLPNLDEVDFSHDVVFLWNGTTSGVRVPNGDWIKDDRQGLTICDATSAVFAMDIPWEKIDVLTYSWQKVLGGEAQHGVIVLSPRAVERLQTYEPAWPIPKIFRLSQKGKLIEGIFKGDTINTPSMLCVEDALDALIWAESVGGLPGLISRSEANLAAIAQWVKQSNWADFLAEKPETRSCTSICLKIVDAAFASLSAEDQGKFAKKLAKLLEKQQVAYDIAPYRAAPPGLRIWGGATVETADIEALLPWLDWAYANVKAEFVPVA | not soluble
MGSDKIHHHHHHMSEIETIQAYYAASLGKDGRITRTQRQILAAALDLFAEKGYEEVGTREIAERAGVAEGTLFHNFVNKNGILDAIMQPIVQNILPTMLNTLDQAVLDSPNQTLQAFVVALVRDRVAFVTRNRASLAVILSQFFNNAQDRAAVLGMVSPSILAQANEAMDRLKAARELVDWPNRMILQLVFSTIGGYLVEQVLYPQLDDLSDEQLIHYLSDFLVNGLSPRRIPLQDDNTAS | not soluble
MGSDKIHHHHHHMSFEVTFDGMRYSCVNCAYCCSCKNWRVFLSYFDMMRLKGYENYIEKSNSNYEHVLALRNGKCGLIENNLCRIQLEKSYDTKPAMCRLFPFSFMVKWNGDLLLILKHYCGGVQVGKCSKKTIKHAIECCEELYHDQLSEFSLDFAERSDKTSLNEKTEICWEERAELGKYFFKIKKFDSFSEKYSEIFSEDISDSIEKLKSKNSCFDEKTQKLREKETLRYMYELNKREHFRKMSFKKELDNLINVGIIIDDYKDLLKGEGAVDSKLLLN | not soluble
MGSDKIHHHHHHMSFFNKIILIGRLVRDPEERYTLSGTPVTTFTIAVDRVPRKNAPDDAQTTDFFRIVTFGRLAEFARTYLTKGRLVLVEGEMRMRRWETPTGEKRVSPEVVANVVRFMDRKPAETVSETEEELEIPEEDFSSDTFSEDEPPF | soluble
MGSDKIHHHHHHMSFSMLRAALVLGSIGCAFSPQVNAKLNPLTVQIQPLAQSKLLLDLANAGDQLIAVGQRGHVLVYDKSWIQVPTPVLSQLTKVFFLDAKLGWAVGHDASIIHTQDGGQTWQLQMQSREIEKPFLDIRFFNANEGIAIGAYGLFYRTLDGGKTWEPEFHEELLFEEDVSYLAELKAEDEALYLSERAALLPHFNRIIRLNDSRLLLVGELGLVAESKDNGKHFTRTDFDYDGSMFNAIQVGEQIYVMGLRGHVFKTDLSLSDWQQVELPVKSSINGALVHKGELYIVGNAGVVLRLDGKGHAEIVARRQGENIVAVAESADKQLWFAGSNGLFQLK | not soluble
MGSDKIHHHHHHMSFSNEMKVFSGNANRPLAEKIANYLNLQLGDCEVGRFADGEINVRINETVRGHDIFLIQPTSPPVNENLMELLIMIDAFKRASANTIAVVIPYYGYARQDRKAKGRDPISAKLVANLITVAGATRVLTVDLHAEQIQGFFDIPVDNLWSYPVFAEELLKRENIVPEETVVVSPDVGGVRRARRMAERLGTSLAILDKRRPSDNVAEVVNIIGEVEDKVVIMFDDIIDTAHSIVKGAEALKNAGAKRIIACATHGVFSDRALERIENSSIDTVYITDTIYHENLPEKVKVISVANLIGEAIMRIRKHLSVSTLFR | not soluble
MGSDKIHHHHHHMSGLCAKCVDGCTGGCETWLASFRGREVLYPGPFGDITAGAVKDYPVDYSHLNILGYARGAEGLPEGVEPGPDTAIFTNVDTTTEYGWDIKVKMKVPIFTGALGSTEIARKNWDHIAVGAAISGITVVCGENVAGVDPDLELDSNGKVKKSPELDRRIEIYKRYHDGEYGEILIQMNVEDTRLGVAEYVINKHGIETIELKWGQGAKSIGGEIKVRSLERALELKRRGYIVLPDPELPEVQRAFKEGEIKEFERHSRLGFVSKESFLKEVERLRKLGFKRITLKTGAYSAVELAMALRYGAEAKVDLITVDGAPGGTGMSPWPMMNEWGIPTFYLEALTYQFAEKLSRRGIRVPDIAIAGGFSTEDGVLKAIAMGSPYVKAVCMGRALMIPAMVGKNIGEWLKSGNLPKTVSKYGTTVEEIFVTYEELRSRFGEEEVKKLPLGAIGVYTFVQKFKTGLQQLMAGARKFRLSALSRKDLIALTKDAAEISGIPYVMESYRDEAERILEE | not soluble
MGSDKIHHHHHHMSIHPALESVGQLFGANLIFRVPRYQRYYAWDAEQIGDFLADLELCLKARAGGNRREHFFGGLVTVRTDVEGSSRQNMEVIDGQQRLASFSMLAAQLRNAAVQLAESVDAAVPDNPKEFLLEFAKTLKAEFERYKDKIKLQVVEIDRLELSKPDLIFFKDLVEGRNPTPSRMSHRLLKQAWDRIGAKLAQIVASENTDVEKAQALSLVDTVMEEDWNPHPHDH | not soluble
MGSDKIHHHHHHMSIKILQPGLFSTVQDLGRKGYEHIGFSGAGAMDQFSFKVAQLLINNDGPAIEYTLIGPTIQFNTQNTFVITGGSVNASLNNKTISMNSVILAEKGDILKIGAITKGARGYLTFGHSINVPPIAESYATHTRSSIGGFKGRKLLANDVITVKINNDFKENIGKTIHLQDDLLPENNIIHILQGPQFEAFSEEARAKIVNHPYLITEQSDRMGYRLEGDSVAPINQADIISEPVALGSVQVPNDGQPIILLNDKQTIGGYTKIATVCKFDLPKLAQMKPQDTIQFKWISFQEAVDKNREQMSLFNEILKSHQKTPIFDTSSLRHTSKKLATILKGDL | not soluble
MGSDKIHHHHHHMSIKTFELISTTENGIQLISYVALPEAASDDNPVAGILVAPEWWGVVEHPKNVTERLAKAGYAAVAMDVYGEGKLTSDAAQANMWMEQVLADQDMLMARCRLILNDFSDQLAVDSDNLGAIGYCFGGKIVLDMAREGMPLKAVATFHGNPSPKQPADKQFSAKVLVAHGRDDSMVSMDAIEGLKAELDGADIDYTIDVYDGAKHGFTNPNADERAAKNGVDLGYNETAAKQSWDNMLEFMKDNLA | not soluble
MGSDKIHHHHHHMSILNLFRKNKNKNNIDFNEKSNKSKQTSNNTMTPSQEYNSISTHNVEVKNEINKVLNVSYNDTTNLYELEKQAREKSDALYDIHTNSINKFNPQNNILETDTKPLTSIEKSFLKYIIGENIYEPYIATYWTYEYNINYSYLISKFFNMDYLKISNYIEDLTKLTVSELKEILKSNNIKSTGKKAELIERIEKEISCKDLSNFFNSSNKYYALTDKGKELLKDVRKSVTKNTDLEDQCLELIYIDKYEEAYDLICKYESSKNIQRGININWENHKITPMKIESYKAIKELDINLKDTLLDNIIKSSYILCDMLGNNSKTSILVKRLAGEKIDNIEINNAINSINDVIYNHSTITYNANDSINNKNLHYMDIVKNNKSIPFEVNNKNYNFKINENEIYFFNILKIKMYENELKNNFVFDRMSDGAFNVFDTSDNFIGKVKLQGRKKWIMYMKNEFGSEHIYGELIHLIDGIDAWIKYSKEYLK | not soluble
MGSDKIHHHHHHMSIYHDVIKSEVFPALGCTEPIAVAYAASLAAERLGAEVETVTASVDPGVFKNGFAVTVPKTGGLKGNVIAAALGALIARPELKMEILSGADERLLAQAELLVSSGRATVALVKERTDLYIDVVVTGGGRTARAVLEGGHTNIVRLECDGRILLNADEPVSAVDSHAYRAVLRQMTFSEMIGLLDDLDQGDLVYLKRGVEMNLRIAEEGKQLTKVGHYVEELVRKGFLLADVVSSSKILTASASDARMAGLPYPVMSSGGSGNQGIVAILVPYNVGMFFHVPEETILRSIALSHLVNAYIKCHTGDLAPICGCAIAAGVGAAVAIVYQQAGPDMHKIDLAVNTIISDIGGMLCDGAKGGCALKVVSSTDAAIRAAYMALNGHGISEEEGFVGKSAEETIHNLSRIADKGMALVDDTMLCIMLQKRSTEP | not soluble
